Literature values as cited in PMC6273919.

Biological target: NF-kappa-B p50 (Homo sapiens) (UniProt P19838)
Sequence of UniProt P19838 (P19838 1-433): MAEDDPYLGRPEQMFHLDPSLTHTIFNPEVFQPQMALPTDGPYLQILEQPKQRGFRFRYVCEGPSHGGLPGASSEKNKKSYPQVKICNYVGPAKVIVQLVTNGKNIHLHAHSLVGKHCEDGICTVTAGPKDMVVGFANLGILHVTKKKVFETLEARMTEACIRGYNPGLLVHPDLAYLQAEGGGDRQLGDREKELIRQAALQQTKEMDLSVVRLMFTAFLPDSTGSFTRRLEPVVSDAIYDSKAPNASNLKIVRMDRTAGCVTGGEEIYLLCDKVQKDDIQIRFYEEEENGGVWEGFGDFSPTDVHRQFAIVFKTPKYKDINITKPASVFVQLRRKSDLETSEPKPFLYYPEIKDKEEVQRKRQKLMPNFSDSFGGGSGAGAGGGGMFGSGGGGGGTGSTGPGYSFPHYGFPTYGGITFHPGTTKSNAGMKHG

In the case of Melittin (from UniProt P01501), the Kd is given as 0.012 µM.
